Two molecules from PMC2781058 (Proceedings of the National Academy of Sciences of the …, 2009) can be followed below.

The target in this assay is T1, Med18 (S. cerevisiae, UniProt P32585 1-307).
T1 sequence (looked up): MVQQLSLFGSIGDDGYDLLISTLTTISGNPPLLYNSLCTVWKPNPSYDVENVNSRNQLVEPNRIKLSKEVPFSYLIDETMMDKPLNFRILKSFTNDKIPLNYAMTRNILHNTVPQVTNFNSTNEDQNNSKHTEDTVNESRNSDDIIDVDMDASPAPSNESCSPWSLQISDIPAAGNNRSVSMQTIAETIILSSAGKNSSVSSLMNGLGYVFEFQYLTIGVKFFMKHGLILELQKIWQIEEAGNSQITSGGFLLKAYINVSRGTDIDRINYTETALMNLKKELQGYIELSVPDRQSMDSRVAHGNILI
In words: co-IP.

B1: Med20 (natural protein, S. cerevisiae, UniProt P34162 1-210, looked up)
chain: MGKSAVIFVERATPATLTELKDALSNSILSVRDPWSIDFRTYRCSIKNLPADVSKLMYSITFHHHGRQTVLIKDNSAMVTTAAAADIPPALVFNGSSTGVPESIDTILSSKLSNIWMQRQLIKGDAGETLILDGLTVRLVNLFSSTGFKGLLIELQADEAGEFETKIAGIEGHLAEIRAKEYKTSSDSLGPDTSNEICDLAYQYVRALEL
B1: the binding result is “binds”.

B2: Med8 (natural protein, S. cerevisiae, UniProt P38304 1-223, looked up)
chain: MSQSTASLVPEGNQGSLQEDVSFDFNGVPGQALDAVRMRLAQLTHSLRRIRDEMSKAELPQWYTLQSQLNVTLSQLVSVTSTLQHFQETLDSTVVYPLPKFPTTSHESLVTTLLRKKNIPEVDEWMKYVRETSGVTTALLKDEEIEKLLQQDREITNWARTTFRNEYGKHDFKNEESLSEEHASLLVRDSKPSKPFNVDDVLKFTFTGEKPIITGSTSTSSSN
In the case of B2, the binding result is reported as “binds”.
